# Laboratory results reported in patent publication US20130344070A1 (SORRENTO THERAPEUTICS, published 2013).
# Positions count from the first letter of the chain named.
# B1: D1 (antibody, human IgG1, V domains shown)
# VH: EVQLVQSGAEVKKPGASVKVSCKASGYTFTGYHMHWVRQAPGQGLEWMGWINPNSGVTKYAQKFQGRVTMTRDTSINTAYMELSRLRFDDTDVYYCATGGFGYWGEGTLVTVSS
# VL: LPVLTQPPSVSKGLRQTATLTCTGNSNNVGNQGAAWLQQHQGQPPKLLSYRNHNRPSGVSERFSPSRSGDTSSLTITGLQPEDEADYYCLAWDSSLRAFVFGTGTKLTVL
# notes: also called CCR2 D1 IgG; anti-CCR2 D1 antibody
# B2: D1-1/45H8L1 (antibody, V domains shown)
# VH: B1 VH with E1Q, H33Y, I76T, N77S, A79V, R85S, F88S, D89E, D92A
# VL: B1 VL with L1Q, P2A
# notes: also called D1H1/45H8L1; D1-1B
# What was measured:
# [1] = molecular target: T1, human CCR2 (CC-Chemokine Receptor 2) (human, UniProt P41597 1-374); experiment: cell-based or functional assay
# murine CCR2 [2] = molecular target: T2, murine CCR2 (murine, UniProt P51683 1-373); experiment: cell-based or functional assay
# [3] = molecular target: T1, human CCR2 (CC-Chemokine Receptor 2); experiment: cell-based or functional assay; remark: listed apart in the source
# [4] = molecular target: T1, human CCR2 (CC-Chemokine Receptor 2); experiment: cell-based or functional assay; remark: listed apart in the source
# [5] = molecular target: T1, human CCR2 (CC-Chemokine Receptor 2); experiment: cell-based or functional assay; remark: listed apart in the source
# murine CCR2 [6] = molecular target: T2, murine CCR2; experiment: cell-based or functional assay; remark: listed apart in the source
# [7] = molecular target: T1, human CCR2 (CC-Chemokine Receptor 2); experiment: flow cytometry on CHO-CCR2 cells (FIG. 1)
# Protocol: (§1) The data in FIG. 1 illustrates in vitro data for cellular binding EC₅₀ measurements. […] In this example, CHO-CCR2 cells were lifted from culture flasks using non-enzymatic Cell Dissociation Buffer—PBS based (Life Technologies #13151-014). Cells were resuspended in FACS Buffer (2% Fetal Bovine Serum in PBS) at 1×10⁶ cells/ml and 100 μl (1×10⁵ cells) were aliquoted into the wells of a 96-well plate. Plated cells were spun down and the supernatant discarded. Cells were resuspended in 50 μl FACS Buffer containing the indicated concentrations of CCR2 D1 IgG in triplicate (FIG. 1). Plates were incubated for 1 hr at 4° C., then washed 1× with FACS Buffer. Cells were resuspended in 50 μl goat anti-human IgG (γ-chain specific)-PE conjugated secondary antibody (Southern Biotech #2040-09) diluted 1:500 in FACS Buffer. Cells were further incubated for 30 min at 4° C. and then washed 1× with FACS Buffer. The cells were resuspended in a final volume of 25 μl FACS Buffer and analyzed using the Intellicyt Flow Cytometer. Median fluorescence in the FL-2H channel was determined using FlowJo software and EC₅₀ value was determined by plotting the data in GraphPad Prism and analyzing using a variable slope non-linear regression.
# murine CCR2 [8] = molecular target: T2, murine CCR2; experiment: flow cytometry on murine CCR2-expressing cells (FIG. 2)
# [9] = molecular target: T1, human CCR2 (CC-Chemokine Receptor 2); experiment: flow cytometry on CHO-huCCR2 cells, PE anti-human IgG
# Protocol: as §1
# murine CCR2 [10] = molecular target: T2, murine CCR2; experiment: flow cytometry on WEHI 274.1 cells (murine CCR2), PE anti-human IgG
# Protocol: In this example, WEHI 274.1 cells were resuspended in FACS Buffer (2% Fetal Bovine Serum in PBS) at 1×10⁶ cells and […] of cell suspension was aliquoted into the wells of a 96-well plate. Plated cells were spun down and the supernatant discarded. Cells were resuspended in 30 μl FACS Buffer containing serially diluted anti-CCR2 IgGs in triplicate. Plates were incubated for 1 hr at 4° C., then washed 2× with FACS Buffer. Cells were resuspended in 50 μl goat anti-human IgG (γ-chain specific)-PE conjugated secondary antibody (Southern Biotech #2040-09) diluted 1:500 in FACS Buffer, incubated for 30 min at 4° C. and then washed 1× with FACS Buffer. The cells were resuspended in a final volume of 30 μl FACS Buffer and analyzed using the Intellicyt Flow Cytometer. Median fluorescence in the FL-2H channel was determined using FlowJo software and EC₅₀ values were determined by plotting the data in GraphPad Prism and analyzed using a variable slope non-linear regression.
# T2 sequence (P51683 whole entry): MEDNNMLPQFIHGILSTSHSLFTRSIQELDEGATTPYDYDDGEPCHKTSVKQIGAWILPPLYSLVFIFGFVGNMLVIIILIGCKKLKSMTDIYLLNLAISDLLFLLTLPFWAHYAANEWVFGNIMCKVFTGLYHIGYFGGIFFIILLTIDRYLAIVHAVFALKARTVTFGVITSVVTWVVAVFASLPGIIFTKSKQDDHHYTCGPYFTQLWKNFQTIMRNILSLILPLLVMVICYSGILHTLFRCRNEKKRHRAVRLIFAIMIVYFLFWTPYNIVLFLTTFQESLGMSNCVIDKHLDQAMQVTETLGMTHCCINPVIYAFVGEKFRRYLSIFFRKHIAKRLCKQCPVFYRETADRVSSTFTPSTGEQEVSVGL
# T1 sequence (P41597 whole entry): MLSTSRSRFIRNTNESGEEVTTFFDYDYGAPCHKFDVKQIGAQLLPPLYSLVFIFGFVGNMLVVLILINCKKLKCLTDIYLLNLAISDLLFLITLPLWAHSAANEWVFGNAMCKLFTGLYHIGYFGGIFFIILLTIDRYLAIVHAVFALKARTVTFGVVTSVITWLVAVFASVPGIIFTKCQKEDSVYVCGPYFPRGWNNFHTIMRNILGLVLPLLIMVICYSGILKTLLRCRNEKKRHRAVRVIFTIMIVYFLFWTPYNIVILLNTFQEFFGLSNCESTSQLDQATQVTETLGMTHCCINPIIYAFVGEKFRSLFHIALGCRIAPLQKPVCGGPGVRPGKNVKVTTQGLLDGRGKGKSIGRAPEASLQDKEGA
"IC50 in chemotaxis assay using human THP-1 cells, ligand MCP-1 (3 nM) [4] [nM]","IC50 in chemotaxis assay using human THP-1 cells, ligand MCP-4 (35 nM) [4] [nM]","IC50 in calcium flux assay using human THP-1 cells, ligand MCP-1 (2.5 nM) [5] [nM]","IC50 in calcium flux assay using human THP-1 cells, ligand MCP-3 (22 nM) [5] [nM]","IC50 in calcium flux assay using human THP-1 cells, ligand MCP-5 (0.43 nM) [5] [nM]","IC50 in chemotaxis assay using mouse WEHI cells, ligand mouse MCP-1 (0.7 nM) (murine CCR2 [6]) [nM]",EC50 [9] [nM],EC50 (murine CCR2 [10]) [nM],also measured,Binder
0.17,0.14,0.18,0.19,0.28,0.062,0.17,1.5,"IC50 of D1 on MCP-1 (1 nM) induced primary human monocyte migration, another donor [1]: 3.48 nM; IC50 of D1 on MCP-1 (1 nM) induced primary human monocyte migration, first donor [1]: 1.02 nM; IC50 of D1 on MCP-1 (3 nM) induced THP-1 cell migration [1]: 0.194 nM; IC50 of D1 on MCP-1 (10 nM) induced THP-1 calcium mobilization [1]: 4.7 nM; IC50 of D1 on MCP-1 (10 nM) induced primary human monocyte calcium mobilization [1]: 2.8 nM; IC50 of D1 on mMCP-1 induced WEHI 274.1 cell migration (murine CCR2 [2]): 66 nM; IC50 on MCP-1 induced THP-1 cell migration [3]: 0.168 nM; IC50 on MCP-2 induced THP-1 cell migration [3]: 0.172 nM; IC50 on MCP-3 induced THP-1 cell migration [3]: 0.854 nM; IC50 on MCP-4 induced THP-1 cell migration [3]: 0.138 nM; IC50 on mouse MCP-5 induced THP-1 cell migration [3]: 0.19 nM; IC50 in chemotaxis assay using human THP-1 cells, ligand MCP-2 (6.7 nM) [4]: 0.17 nM; IC50 in chemotaxis assay using human THP-1 cells, ligand MCP-3 (1.1 nM) [4]: 0.11 nM; IC50 in chemotaxis assay using human THP-1 cells, ligand MCP-5 (0.65 nM) [4]: 0.19 nM; EC50 [7]: 0.168 nM; EC50 (murine CCR2 [8]): ~17 nM",B1
0.28,0.08,0.37,0.19,0.27,0.012,0.15,2,–,B2
